Data taken from publication PMC2770678 (Nucleic Acids Research, 2009).

Biological target: T1, P. furiosus AP endonuclease (PfuAPE), PF0258 gene product, His-tagged recombinant (Pyrococcus furiosus, UniProt Q8U437 1-281)
T1 sequence (looked up): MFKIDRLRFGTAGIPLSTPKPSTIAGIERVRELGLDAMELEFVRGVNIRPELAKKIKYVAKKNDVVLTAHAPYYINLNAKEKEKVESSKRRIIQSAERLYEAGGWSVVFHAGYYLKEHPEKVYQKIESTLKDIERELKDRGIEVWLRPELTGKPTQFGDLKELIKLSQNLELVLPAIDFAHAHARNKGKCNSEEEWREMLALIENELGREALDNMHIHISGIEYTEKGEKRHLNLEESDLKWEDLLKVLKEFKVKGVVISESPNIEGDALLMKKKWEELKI
Experiment: SPR

B1: P. furiosus proliferating cell nuclear antigen (PfuPCNA), recombinant wild type (natural protein, Pyrococcus furiosus, UniProt O73947 1-249, looked up)
chain: MPFEIVFEGAKEFAQLIDTASKLIDEAAFKVTEDGISMRAMDPSRVVLIDLNLPSSIFSKYEVVEPETIGVNMDHLKKILKRGKAKDTLILKKGEENFLEITIQGTATRTFRVPLIDVEEMEVDLPELPFTAKVVVLGEVLKDAVKDASLVSDSIKFIARENEFIMKAEGETQEVEIKLTLEDEGLLDIEVQEETKSAYGVSYLSDMVKGLGKADEVTIKFGNEMPMQMEYYIRDEGRLTFLLAPRVEE
**Q.** With B1 as the binder, how does the Kd read?
**A.** 1000 nM
